Experimental data: the nanobody polyreactivity screen of Harvey et al. (2022)

Assay: yeast display, Sf9 membrane polyspecificity reagent, FACS + sequencing; frameworks hold sequencing errors
Summary of the method: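 Sorting gates, low and high (top ~1%), were placed on anti-HA fluorescence to track expression and on streptavidin fluorescence to track reagent binding. A clone's polyreactivity label is taken from the gate it came out of. The reagent was 10% biotinylated, detergent-solubilized Sf9 membrane, applied for 1 hour at 4 °C to galactose-induced yeast display cells.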

**Q.** For “QVQLVESGAGLVQAGGSLRLSCAPSGSTFGDNAMGWYRQAPGKERELVAAISSGGGSTYYADSVKGRFTISRDNAKNTVYLQMNSLKPEDTAVYYCAADGTLTLYRYILDYWGQGTQVTVSS”, which “polyreactivity (PSR sort gate)” value is on record?
**A.** low polyreactivity

**Q.** With “HVRLQESGGGLVQAGGSLRQSCAACGAISPYYDMGWYRLAPGKEREFVASIAHGGTTYYADSVKGRFTTSRDNAKNTVYLQMKSMKTEDTAVYYCAVDYDVWHSHIYRGQGTQVTVSS” as the sequence, how does the “polyreactivity (PSR sort gate)” value read?
**A.** high polyreactivity

**Q.** Which “polyreactivity (PSR sort gate)” value does the source give for “QVQLVESGGGLVQAGGSLRLSCAASGSTFLRYAMGWYRQAPGKERELVAAISSGTSTNYADSVKGRFTISRDNAKNTVYLQMNSLKPEDTAVYYCAAVYAWLFWYDSWGQGTQVTVSS” here?
**A.** low polyreactivity

**Q.** With “QVQLVESGGGLVQAGGSLRLSCAASGRIFDDNTMGWSRQAPGKERELVAVITSGGSTNYADSVKGRFTISRDNAKNTVYLQMNSLKQEDTAVYYCATEPGGYRFADRPFQYGYWGQGTQVTVSS” as the sequence, how does the “polyreactivity (PSR sort gate)” value read?
**A.** low polyreactivity

**Q.** Which “polyreactivity (PSR sort gate)” value does the source give for “QVQLVESGGGLVQAGVSLRLSCAASGYIIIVYTMGWYRQAPGKERELVAAISSGGITDYADSVKGRFTISRDNAKNTVYLQMNSLKPEDTAVYYWGQGTQVTVSS” here?
**A.** low polyreactivity

**Q.** With “QVQHVESGGGLVQAGGSLRLSCAASGRIFGTYAMGWYRQAPGKERELVAAISWSGGRTYYADSVKGRFTISRDNAKNTVYLQMNSLKPEHTAVYYCAARGVPRDGRHHYRYDYWGQGSQVTVSS” as the sequence, how does the “polyreactivity (PSR sort gate)” value read?
**A.** high polyreactivity

**Q.** With “QVQLVESGGGLVQAGGSLRLSCAASGFIFAYYALGWYRQAPGKERELVAAITWSGGRTYYADSVKGRFTISRDNAKNTVYLQMNSLKPEDTAVYYCNAVRPSVDYGYWGQGTQVTVSS” as the sequence, how does the “polyreactivity (PSR sort gate)” value read?
**A.** high polyreactivity

**Q.** Which “polyreactivity (PSR sort gate)” value does the source give for “QVQLVESGGGLVQAGGSLRLSCAASGSIFRGYAMGWYRQAPGKERDLVAAITSGGSTNYADSVKGRFTISRDNAKNSVYLQMNSLKPEDTAVYYCAKDLALVAPLSDYWGQGTQVTVSS” here?
**A.** low polyreactivity

**Q.** For “QVQLVESGGGLVQAGGSLRLSCAASGFNFDWYAMGWYRQAPGKERELVAAISASGGRTYYADSVKGRFTISRDNAKNTVYLQMNSLKPEDTAVYYCNKYYLVKGPYDWGQGTQVTVSS”, which “polyreactivity (PSR sort gate)” value is on record?
**A.** high polyreactivity

**Q.** Which “polyreactivity (PSR sort gate)” value does the source give for “QDQLVESGGGLVQAGGSLRLSCASSGFTFNGYAMGWYRQAPGKERELVAAINISGGSTYYADSVKGRFTISRDNAKNTVYLQMNSLNPEDTAVYYCAARLWGKRYSYRYGYWGQGTQVTVSS” here?
**A.** high polyreactivity

**Q.** With “QVQLVESGGGLVQAGGSLRLSCAASGSIFGTNAMGWYRQAPGKERELVAAIRGSGGRTYYADSVKGRFTISRDNAKNTVYLQMNSLKPEDTAVYYCAARWGPYYGGVRYGYWGQGTQVTVSS” as the sequence, how does the “polyreactivity (PSR sort gate)” value read?
**A.** high polyreactivity

**Q.** With “QVQLVESGGGLVQAGGSLRLSCAASGFIFRDYDMGWYRQAPGKERELVPAISWRGGTYYADSVKGRFTISRDNAKNTVYLQMNSLKPEDTAVYYCNATRYRLRPSGVRYKYNYWGQGTQVTVSS” as the sequence, how does the “polyreactivity (PSR sort gate)” value read?
**A.** low polyreactivity

**Q.** With “QVQLVESGGGLVQAGGSLRLSCAASGRIYRYAMGWYRQAPGKERELVAAISGGGGRTYYADSVKGRFTISRDNAKNTFYLQLNSLKPEVTAVYDCAVDPYFYYYGDYYFDYWGQGTQVTVSS” as the sequence, how does the “polyreactivity (PSR sort gate)” value read?
**A.** high polyreactivity

**Q.** For “QVQLVESGGGLVQAGGSLRLSCAASGSTFNGYAMGWYRQAPGKERELVAAINWTGDSTYYADSVKGRFTISRDNAKNTVYLQMNSLKPEDTAVYYCAAIRRQKGLWDYYYWGQGTQVTVSS”, which “polyreactivity (PSR sort gate)” value is on record?
**A.** low polyreactivity

**Q.** Which “polyreactivity (PSR sort gate)” value does the source give for “QVQLVESGGGLVQAGGSLRLSCAASGRNFYVYAMGWYRQAPGKEREFVASITVSGSSTYYADSVKGRFTISRDNAKNTVYLQMNSLKPEDTAVYYCNTDAVRSYVWWGTSLYDYWGQGTLVTVSS” here?
**A.** low polyreactivity

**Q.** With “QVQLVESGGGLVQAGGSLRLSCAASGRTFALYALGRYRQAPGKERELVASISWRGGSTYYADSVKGRFTISRDNANNTVYVQMNRLKPEDTAVSYCAADTGSYGPLIYRLEYWGQGTQVNVSS” as the sequence, how does the “polyreactivity (PSR sort gate)” value read?
**A.** low polyreactivity

**Q.** With “QVHLVESGGGLVQAGGSLRLSCAATGSTFHYYAMGWYRQAPGKEMELVAAISSSGVSTYYADSVKGRFTISRDNAKNTVYLQMNSLKPEDTAVYYCNSASVFHYRWYYYWGHGTQVTVSS” as the sequence, how does the “polyreactivity (PSR sort gate)” value read?
**A.** high polyreactivity

**Q.** For “QVQLVESGGGLVQAGGSLRLSCAASGYTFAPNTMGWYRQAPGKERELVATITVSGGITYADSVKGRFTISRDNAKNTVYLQMNSLKPEDTAVYYCAARTPGWYLPRDYWGQGTQVTVSS”, which “polyreactivity (PSR sort gate)” value is on record?
**A.** low polyreactivity

**Q.** Which “polyreactivity (PSR sort gate)” value does the source give for “QVQLVESGVGLVQAGGSLSLSCAASGFTISLNTMGWYRQAPGKERELVAAITYSGTRTYYADSVKGRFTISRDNAKNTVDLQMNRLKPEDTAVYYCAARHGQSWQWLEYDYWGQGTQVTVSS” here?
**A.** low polyreactivity

**Q.** With “QVQLVESGGGLVQAGGSLRLCCAASGSIFRPNAMGWYRQAPGKERELVAGISSRGGSTYYADSVKGRFTISRDNAKNTVYLQMNSLKPEDTAVYYCNALTYSSQRNSFYYSFDHWGQGTQVTVSS” as the sequence, how does the “polyreactivity (PSR sort gate)” value read?
**A.** high polyreactivity

**Q.** For “QVQLVESGGGLVQAGGCLRLSCDASGITFDYYAMGWYRQAPVKESELVAAITNDGRTYNADSVKGRFTISLDNAKNTVYLQMNSLKPEDTADYYCARLTYYVNGRYDYWGQGTQVTVSS”, which “polyreactivity (PSR sort gate)” value is on record?
**A.** low polyreactivity

**Q.** Which “polyreactivity (PSR sort gate)” value does the source give for “QVQLVESGGGLVQAGGSLRLSCAASGFTFDSYDMGWSRQAPVKEREVVAAITWSGGSTYYADSVKGRFTISRDNAKNTVYLQMNSLKQEDTAVYYCNADTGTYWVPWYHDGYDYWGQGTQVTVSS” here?
**A.** low polyreactivity

**Q.** Which “polyreactivity (PSR sort gate)” value does the source give for “QVQLVESGGGLVQAGGSLRLSCAASGRTFLRNTMGWYRQAPGKERELVAAISRSGATTYYADSVKGRFTISRDNAKNTVYLQMNSLKPADTAVYYCAALGQGRTSATSFVDYEYWGQGTQVTVSS” here?
**A.** high polyreactivity

**Q.** For “QVKLVESGGGLVQAGGSLRLSCAASGRIFDRYAMGWYRQAPGKERELVAAITSRADRTYYADSVKGRFTISRDIAKNTVYLQMNSLKPEDTAVYYCNRRRRHYSYYSTLSYDYWGQGTQVTVSS”, which “polyreactivity (PSR sort gate)” value is on record?
**A.** high polyreactivity

**Q.** For “QVQLVESGGGLVQAGGSLRLSCADSASTLVVNGMGWYRQAPGKERELVASISSDGSTNYADSVKGRFTISRDNAKNTVYLQMNSLKPEDTAFYYCAADEGNGQASLSSNLYDYWGQGTQVTVSS”, which “polyreactivity (PSR sort gate)” value is on record?
**A.** low polyreactivity

**Q.** For “QVQLQESGGGLVQAGGDLRLTCAASGNIFRDYIMGWYRQAPGKEREFVAGIDRGANTNYADSVKGRFTISRDNAKNTVYLQMNSLKPEDTAVYYCAVHTAIVPDFIYWGQGTQVTVSS”, which “polyreactivity (PSR sort gate)” value is on record?
**A.** low polyreactivity

**Q.** Which “polyreactivity (PSR sort gate)” value does the source give for “QLQLVESGGGLVQAGGSLRLSCAASGFIFGLYDMGWYREATGKERELVAAISWSGGSTYYADSVKGRFTISRDNAKNTVYLQMNSLKPADTAVYYCNKDLYADGQYNYDYWGLGTQVTVSS” here?
**A.** low polyreactivity

**Q.** Which “polyreactivity (PSR sort gate)” value does the source give for “QVQLVESGVGLVQAGGSLRFSCAASAMGWSRQAPGKERELVAVINSTGGSTYYADSVKGRFTISRDNAKNTVYLQMNSLKPDATAVYYCARVTRRGPGYTTLYSRYDYWGQGTQVSVSS” here?
**A.** low polyreactivity

**Q.** Which “polyreactivity (PSR sort gate)” value does the source give for “QVQLVESGGGLVQAGGSLRLSCAASGIIFDSYVMGWYRQAPGKERELVAAISFRGGSTYYADSVKGRFTISRDNAKNTVYLQMNSLKPEDTAVYYCAAEGRGYTEYYWGQGTQVTVSS” here?
**A.** high polyreactivity

**Q.** With “QVQLVDSGGGLVQAGGSLRLSCAASGITFWWYAMGWSRPAPGKEREVVAAISQRGGTYYADSVKGRFTISRDKAKNTVFLQMKSLKPDDTAVDSCAAVVYSRYAPYSAQYDDWGQGTQVTVSS” as the sequence, how does the “polyreactivity (PSR sort gate)” value read?
**A.** high polyreactivity
